Like-named read-outs stand apart in the source and are kept apart here. Positions of bridges follow the written chain, without caps; N, C: chain ends. No end group written: not given here.

Results on 6 molecules are retold here after patent US20230181719A1, “NGR CONJUGATES AND USES THEREOF” (OSPEDALE SAN RAFFAELE S.R.L., priority 2020, published 2023).

The conditions of data set [1]: buffer; cited from earlier work.
For a further data set, the target named is αvβ3 (Homo sapiens, UniProt P05106+P06756). As to conditions: cited from earlier work.
In data set [2] the test system is malignant pleural mesothelioma (MPM). As to conditions: cited from earlier work.
The test system of data set [3] is primary central nervous system lymphoma (PCNSL). The following applies: with R-CHOP; cited from earlier work.
The subject of another data set is RMA-T lymphoma. The format is in vivo, mice. The protocol: RMA-T tumor-bearing mice (6 per group) were treated 11 days after tumor implantation with 100 pg of S-NGR-hTNF (i.p.). Two hours later, the mice were injected (i.p.) with 50 µg of melphalan (generic preparation of melphalan, Tillomed).
B) Kaplan-Maier curves of vehicle, melphalan alone and in combination with S-NGR-hTNF.
C) Animal body weight change (mean ± SE, 6 mice per group). Arrows: pharmacological treatment.
Inventors have shown previously that low-dose murine S-NGR-TNF (100 pg) can enhance the antitumor activity of melphalan, an anticancer alkylating agent, in a murine lymphoma model (Corti et al., 2020). To assess whether S-NGR-hTNF can also synergize with melphalan, inventors performed similar experiments using the RMA-T lymphoma model. As expected, administration of melphalan (50 µg) in combination with S-NGR-hTNF (100 pg) induced stronger antitumor effects than melphalan alone (FIGS. 21A-B).

Another data set relates to L-M cells. In words: LM-cells cytolytic assay (MTT). The class given is cell-based. The following applies: actinomycin D, 20 h, murine proteins. The text has this: FIG. 8. Biochemical and biological characterization of murine S-NGR-TNF and NGR-TNF. A) SDS-PAGE under reducing (βMe +) and non-reducing conditions (βMe -) of murine S-NGR-TNF, NGR-TNF and TNF. Arrows: bands corresponding to monomeric subunits (mon) and reducible dimers (dim). B) Representative mass spectra of murine NGR-TNF, TNF and S-NGR-TNF as determined by a Q Exactive HF mass spectrometer. Expected average masses are shown. C) Cytotoxic activity of TNF, NGR-TNF and S-NGR-TNF against L-M cells. L-M cells were incubated in DMEM medium supplemented with 2 mM glutamine, 100 U/ml penicillin, 100 µg/ml streptomycin, 0.25 µg/ml amphotericin-B, 10% fetal bovine serum, 2 µg/ml actinomycin D and TNF, NGR-TNF or S-NGR-TNF at the indicated doses (20 h at 37° C., 5% CO2). Cell viability was quantified by standard 3-(4,5-dimethylthiazol-2-yl)-2,5-diphenyltetrazolium bromide (MTT) assay. D) Binding of TNF, NGR-TNF and S-NGR-TNF to sTNF-R1 (Etanercept). Microtiterplates were precoated with or without the indicated amount of sTNF-R1 (for 16 h), washed with PBS, blocked with PBS containing 3% milk, 1% BSA (binding buffer, 1 h) and incubated with the indicated amounts of TNF, NGR-TNF or S-NGR-TNF diluted in binding buffer (for 1.5 h). The binding of each protein to sTNF-R1 was then detected using a polyclonal anti-murine TNF (IP301, 5 µg/ml in binding buffer, 1 h) followed by a polyclonal goat anti-rabbit antibody conjugated with horseradish peroxidase (1:1000 in binding buffer, 1 h) and o-phenylendiammine as chromogenic substrate.
To assess whether the addition of a serine residue to NGR-TNF affects its capability to recognize the TNF receptors and, consequently, its biological activity, inventors then analyzed the cytotoxic activity of TNF, NGR-TNF and S-NGR-TNF in the LM-cells cytolytic assay.

Data set [4] has as its system endothelial EA.hy926 cells. The data set is described as follows: EA.hy926 endothelial cell adhesion assay on protein-coated microtiterplates. The format is cell-based. As to conditions: plates coated in PBS, no forced deamidation. As to the method: FIG. 12. […] A) Adhesion of endothelial EA.hy926 cells to 96-wells microtiterplates coated with different amounts of murine TNF, NGR-TNF and S-NGR-TNF in 150 mM sodium chloride, 50 mM sodium phosphate buffer, pH 7.4 (PBS) (16 h). Each well was blocked with 2% BSA in PBS containing calcium chloride and magnesium chloride (DPBS, 30 min), seeded with 40.000 endothelial EA.hy926 cells in DPBS supplemented with 0.1% BSA (DPBS-B), and left to incubate for 2 h at 37° C., 5% CO2. After washing with DMEM-B, adherent cells were stained with crystal violet and quantified by spectrophotometric measurements at 570 nm. B) Microtiterplates pre-coated with 1 µg/ml of murine NGR-TNF or S-NGR-TNF in PBS (for 16 h) were incubated 0.1 M ammonium bicarbonate buffer, pH 8.5 (Ambic) at 37° C. for the indicated time to promote NGR deamidation. EA.hy926 cell adhesion assay was then performed as described above.
This behavior likely reflects a further improvement in the CNGRCG (SEQ ID NO: 1) stability when fused to TNF.

The next data set relates to WEHI-164 fibrosarcoma. In words: Low-dose treatment in subcutaneous WEHI-164 fibrosarcoma murine model. The class given is in vivo. As to conditions: 25 or 50 pg, i.p. As to the method:
FIG. 14. […] Balb/c mice (6-7 weeks old, weighing 18-20 g) were injected, s.c., with 1.5×10^6 WEHI-164 cells in the left flank and treated 5 days after tumor implantation (i.p.) with 25 or 50 pg of murine NGR-TNF or S-NGR-TNF in 0.9% sodium chloride, containing 100 µg/ml endotoxin-free human serum albumin (arrows). A) Tumor volumes after treatment (mean±SE, 6 mice per group). B) Tumor weight at day 15 (cumulative data of the two groups treated with 25 and 50 pg of drugs). *, P<0.05, **P<0.01 by unpaired t test of the area under the curve for each tumor (GraphPad Prism software).
To assess whether the addition of the Ser residue to NGR-TNF might affect its anti-tumor activity at low dose, inventors then analyzed the therapeutic activity of NGR-TNF and S-NGR-TNF (25 or 50 pg, i.p.) using the subcutaneous WEHI-164 fibrosarcoma murine model.

Another data set relates to RMA lymphoma. The class given is in vivo, mice. The following applies: 100 pg i.p., melphalan two hours later. The protocol: FIG. 15. […] C57BL/6 mice (6-7 weeks old, weighing 18-20 g) were challenged with subcutaneous injection in the left flank of 7×10^4 RMA cells. Mice bearing RMA lymphomas (6 per group) were treated 10-11 days (after tumor implantation with 100 pg of murine NGR-TNF or S-NGR-TNF (i.p.). Two hours later, the mice were injected with the indicated dose of melphalan (i.p.). All proteins were diluted with 0.9% sodium chloride, containing 100 µg/ml endotoxin-free human albumin. Tumor growth was monitored daily by measuring the tumors with calipers. A-B) Tumor volume change of two independent experiments are shown (mean±SE). […] C) Tumor bearing-animals were treated at day 10 after tumor implantation as indicated above using the indicated dose of S-NGR-TNF and the generic preparation of melphalan (Melphalan-Tillomed, from Tillomed Italia). RMA tumor weight at day 20 are shown (mean±SE). *, P<0.05, **P<0.01 by unpaired t test analysis with the GraphPad Prism software.
Effect of melphalan alone or in combination with low-dose murine S-NGR-TNF on the body weight and tumor growth of RMA-T lymphoma-bearing mice. Six tumor-bearing mice were injected with the indicated doses of S-NGR-TNF (i.p) and, two hours later, with the generic preparation of melphalan (Melphalan-Tillomed) (i.p.).
Finally, to assess whether low-dose S-NGR-TNF can exert synergistic effects with chemotherapy, as previously observed for NGR-TNF, inventors performed in vivo experiments with S-NGR-TNF and NGR-TNF in combination with melphalan, a chemotherapeutic drug, using the murine RMA lymphoma model (FIG. 15).

Setting [5] is: S-NGR-hTNF 100 pg in combination with melphalan 50 µg.

Chain of αvβ3 (P06756 31-889 limits assumed): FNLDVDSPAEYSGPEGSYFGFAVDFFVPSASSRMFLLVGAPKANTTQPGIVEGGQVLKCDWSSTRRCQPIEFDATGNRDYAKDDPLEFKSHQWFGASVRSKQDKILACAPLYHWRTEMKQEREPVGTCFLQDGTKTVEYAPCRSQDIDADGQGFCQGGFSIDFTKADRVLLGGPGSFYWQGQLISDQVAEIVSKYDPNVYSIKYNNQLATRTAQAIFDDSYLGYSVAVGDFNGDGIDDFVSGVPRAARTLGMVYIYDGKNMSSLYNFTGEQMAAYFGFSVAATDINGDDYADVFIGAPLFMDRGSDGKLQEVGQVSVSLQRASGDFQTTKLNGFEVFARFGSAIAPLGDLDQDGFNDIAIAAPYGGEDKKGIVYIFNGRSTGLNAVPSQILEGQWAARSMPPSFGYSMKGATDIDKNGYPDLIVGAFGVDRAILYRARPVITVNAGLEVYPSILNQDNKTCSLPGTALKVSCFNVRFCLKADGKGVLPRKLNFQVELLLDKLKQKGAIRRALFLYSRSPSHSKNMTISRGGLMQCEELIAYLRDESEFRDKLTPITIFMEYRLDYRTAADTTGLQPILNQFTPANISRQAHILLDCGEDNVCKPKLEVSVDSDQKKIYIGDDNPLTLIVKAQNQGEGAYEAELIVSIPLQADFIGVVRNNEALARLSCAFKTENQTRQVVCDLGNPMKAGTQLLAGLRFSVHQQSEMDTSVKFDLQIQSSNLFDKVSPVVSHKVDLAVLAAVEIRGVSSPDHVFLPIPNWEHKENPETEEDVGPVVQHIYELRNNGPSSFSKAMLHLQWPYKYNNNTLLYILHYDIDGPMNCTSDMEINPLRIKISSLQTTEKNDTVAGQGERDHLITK
Chain of αvβ3 (P06756 891-1048 partner limits assumed): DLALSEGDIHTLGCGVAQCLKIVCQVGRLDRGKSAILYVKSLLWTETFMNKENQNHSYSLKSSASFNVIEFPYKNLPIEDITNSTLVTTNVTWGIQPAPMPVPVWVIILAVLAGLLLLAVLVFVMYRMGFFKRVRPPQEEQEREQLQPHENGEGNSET
Chain of αvβ3 (P05106 27-788): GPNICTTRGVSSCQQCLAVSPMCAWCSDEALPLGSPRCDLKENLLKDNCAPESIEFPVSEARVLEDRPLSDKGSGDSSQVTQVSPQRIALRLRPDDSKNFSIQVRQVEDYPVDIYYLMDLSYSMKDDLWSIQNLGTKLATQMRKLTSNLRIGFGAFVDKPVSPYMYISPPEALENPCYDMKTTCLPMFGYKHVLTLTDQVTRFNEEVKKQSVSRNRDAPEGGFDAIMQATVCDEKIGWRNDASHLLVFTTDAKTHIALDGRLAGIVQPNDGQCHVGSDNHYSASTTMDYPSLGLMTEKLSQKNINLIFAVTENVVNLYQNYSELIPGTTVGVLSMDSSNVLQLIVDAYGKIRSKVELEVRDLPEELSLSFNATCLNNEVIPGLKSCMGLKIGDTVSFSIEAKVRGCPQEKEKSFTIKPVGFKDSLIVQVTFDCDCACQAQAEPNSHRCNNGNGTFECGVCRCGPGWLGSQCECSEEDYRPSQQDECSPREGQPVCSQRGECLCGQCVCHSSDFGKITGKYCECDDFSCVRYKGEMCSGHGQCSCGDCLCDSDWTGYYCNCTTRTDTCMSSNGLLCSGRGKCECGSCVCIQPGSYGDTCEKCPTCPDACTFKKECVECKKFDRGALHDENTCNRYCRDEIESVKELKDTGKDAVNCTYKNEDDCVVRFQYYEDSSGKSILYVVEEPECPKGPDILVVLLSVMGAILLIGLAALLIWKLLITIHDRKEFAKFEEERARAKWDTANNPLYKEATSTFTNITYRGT

Take “CNGRC (SEQ ID NO:5) (disulfide 1-5 (inferred); listed as Homo sapiens)”: the deamidation half-life in data set [1] is 4 to 5 h.

As for “CisoDGRC (SEQ ID NO:41) (isoaspartate; disulfide cyclized; MOD_RES (1)..(1) Ciso or acetyl-Ciso or iso) [deamidation product of CNGRC]”, the “affinity for αvβ3 greater than αvβ5, αvβ6, αvβ8, and α5β1” value with αvβ3 is reported as 10-100 fold.

As to “human NGR-TNF: CNGRCG fused to the human TNF sequence, tested in Phase II and III clinical studies”, the “disease control in previously treated patients” value in data set [2] (0.8 µg/m^2, 1 h infusion) was “about half”. The “duration of disease control” value in data set [2] (triweekly cohort) is recorded as 4.4 months. Further, the “duration of disease control” value in data set [2] (weekly cohort) is on record as 9.1 months. For the same molecule, in [3], the complete responses is recorded as 50% and the responses was 75%.

Turning to “S-NGR-hTNF: Human SCNGRCG-TNF fusion protein expressed in E. coli (SEQ ID NO:27/28)”, in the data set with RMA-T lymphoma (setting [5]), the median survival was 36.5 days and the “toxicity of melphalan, judged from loss of animal weight” value is reported as “without increasing its toxicity”.

`N[C@@H](Cc1ccc(N(CCCl)CCCl)cc1)C(=O)O` [melphalan, reference compound]: the median survival with RMA-T lymphoma (melphalan 50 µg alone) is reported as approximately 28 days.

B1: NGR-TNF: Murine CNGRCG-TNF fusion protein, conventional first-generation conjugate used as comparator (protein)
chain: CNGRCGLRSSSQNSSDKPVAHVVANHQVEEQLEWLSQRANALLANGMDLKDNQLVVPADGLYLVYSQVLFKGQGCPDYVLLTHTVSRFAISYQEKVNLLSAVKSPCPKDTPEGAELKPWYEPIYLGGVFQLEKGDQLSAEVNLPKYLDFAESGQVYFGVIAL
On to B1, for which, in the data set with L-M cells, the EC50 cytotoxic activity result was “very similar”. Besides, the “EA.hy926 cell adhesion to coated plates” value in data set [4] is recorded as “cell adhesion was observed”. Moreover, in the data set on WEHI-164 fibrosarcoma, the toxicity result was “No evidence of toxicity” and the tumor growth entry is listed as “delayed tumor growth to similar extent”. In the data set on RMA lymphoma, the “efficacy of melphalan in combination” value was “could enhance the efficacy of melphalan”.
